The Kd is a measure of binding affinity in units of concentration. A low value points to higher affinity.

Two molecules from PMC2676576 (Structure (London, England : 1993), 2009) can be followed below.

Experiment [1] addresses bovine ubiquitin (bovine, UniProt P0CG53 1-76). The experiment in a line: SPR. On the technique in general: Surface plasmon resonance follows binding to a sensor surface in real time, without labels.
For experiment [2], the target named is STAM(10-390) of the ΔCT construct (human, UniProt Q92783 10-390). As to the kind of experiment: AUC.
STAM(10-390) of the ΔCT construct, sequence (Q92783 10-390, stated change not applied): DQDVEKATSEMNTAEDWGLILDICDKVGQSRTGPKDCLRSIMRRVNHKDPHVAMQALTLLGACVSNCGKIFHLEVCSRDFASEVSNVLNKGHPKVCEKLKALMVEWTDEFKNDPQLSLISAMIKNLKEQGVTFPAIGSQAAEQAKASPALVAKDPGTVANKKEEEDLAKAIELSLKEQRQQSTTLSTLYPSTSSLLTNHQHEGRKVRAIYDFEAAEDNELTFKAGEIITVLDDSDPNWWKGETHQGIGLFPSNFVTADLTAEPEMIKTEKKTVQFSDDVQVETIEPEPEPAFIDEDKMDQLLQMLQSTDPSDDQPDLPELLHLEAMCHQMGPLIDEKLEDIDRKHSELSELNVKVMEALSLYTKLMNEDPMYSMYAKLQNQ

B1: his-tagged STAM VHS domain (residues 1-143) (domain or fragment)
chain: not shown
Turning to B1, in experiment [1], the Kd came out at 157 µM.

B2: Hrs(1-557) of the ΔCT construct (domain or fragment, human, UniProt O14964 1-557, looked up)
chain: MGRGSGTFERLLDKATSQLLLETDWESILQICDLIRQGDTQAKYAVNSIKKKVNDKNPHVALYALEVMESVVKNCGQTVHDEVANKQTMEELKDLLKRQVEVNVRNKILYLIQAWAHAFRNEPKYKVVQDTYQIMKVEGHVFPEFKESDAMFAAERAPDWVDAEECHRCRVQFGVMTRKHHCRACGQIFCGKCSSKYSTIPKFGIEKEVRVCEPCYEQLNRKAEGKATSTTELPPEYLTSPLSQQSQLPPKRDETALQEEEELQLALALSQSEAEEKERLRQKSTYTSYPKAEPMPSASSAPPASSLYSSPVNSSAPLAEDIDPELARYLNRNYWEKKQEEARKSPTPSAPVPLTEPAAQPGEGHAAPTNVVENPLPETDSQPIPPSGGPFSEPQFHNGESEESHEQFLKALQNAVTTFVNRMKSNHMRGRSITNDSAVLSLFQSINGMHPQLLELLNQLDERRLYYEGLQDKLAQIRDARGALSALREEHREKLRRAAEEAERQRQIQLAQKLEIMRQKKQEYLEVQRQLAIQRLQEQEKERQMRLEQQKQTVQMR
On to B2, for which, in experiment [2], the “stoichiometry N” value was 1 Hrs:STAM.
